Assay results as given in the supplement of paper PMC10724198.
± gives the standard deviation of the averaged measurements.

Legend:
[1] = system: Saccharomyces cerevisiae; assay: protein stability index of tFT-peptide fusion in wild type (PSI (0-1 scale)); higher = more stable (slower turnover); details: genetic background: wild type
Procedure: (§1)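 MPS profiling in S. cerevisiae of two library types built from selected 12-aa C-degron peptides (IN1, IN2, LN1, LN3, VN2, R1-R5, W1-W3, Atg1 and Rpa12 C-termini): saturation mutagenesis libraries and C-terminal +1 capping libraries (13 aa). Each peptide is fused to the C-terminus of a sfGFP-mCherry timer, after a GGGS linker. Cells are FACS-sorted into 8 mCherry/sfGFP bins and sequenced. PSI runs from 0 (unstable) to 1 (stable), measured once in wild type and in the das1Δ or doa10Δ background.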

[2] = system: Saccharomyces cerevisiae; assay: protein stability index of tFT-peptide fusion in deletion strain of DAS1 (PSI (0-1 scale)); higher = more stable (slower turnover)
Procedure: as §1

[3] = system: Saccharomyces cerevisiae; assay: protein stability index of tFT-peptide fusion (C-terminal peptide) (PSI (0-1 scale)); higher = more stable (slower turnover); details: temperature: 30 C
Procedure: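 MPS profiling in S. cerevisiae of the yeast C-terminome library: the last 12 aa of each annotated ORF are fused to the C-terminus of a sfGFP-mCherry timer, after a GGGS linker. Cells are FACS-sorted into 8 mCherry/sfGFP bins and deep-sequenced. PSI runs from 0 (unstable) to 1 (stable); wild type and das1Δ backgrounds, two technical replicates each.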

[4] = genetic background: das1 deletion
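Wherever protein stability index of tFT-peptide fusion in deletion strain of DAS1 is given: PSI is a weighted mean of each variant's read distribution over the sorted stability bins, computed only for variants having over 10 reads in total.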
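Wherever protein stability index of tFT-peptide fusion in wild type is given: PSI derived as read-weighted mean over the 8 sorting bins, only variants exceeding 10 total reads kept, mCherry placed adjacent to the peptide and sfGFP distal.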

Sequence | protein stability index [1] | protein stability index [2] | protein stability index [3, 4] | protein stability index ([3]; genetic background: wild type)
AKHKKGQKQKIN | 0.11 | 0.829 |  | 
ARCRVGLWRGAS | 0.597 | 0.706 |  | 
ARQRVGLWRGAS | 0.6 | 0.694 |  | 
ARWEVGLWRGAS | 0.458 | 0.648 |  | 
ARWRCGLWRGAS | 0.574 | 0.695 |  | 
ARWRNGLWRGAS | 0.658 | 0.701 |  | 
ARWRVFLWRGAS | 0.432 | 0.674 |  | 
ARWRVGEWRGAS | 0.677 | 0.684 |  | 
ARWRVGHWRGAS | 0.582 | 0.703 |  | 
ARWRVGLDRGAS | 0.665 | 0.687 |  | 
ARWRVGLWCGAS | 0.567 | 0.561 |  | 
ARWRVGLWNGAS | 0.634 | 0.664 |  | 
ARWRVGLWRGAL | 0.596 | 0.682 |  | 
ARWRVGLWRGAN | 0.121 | 0.687 |  | 
ARWRVGLWRGAP | 0.662 | 0.681 |  | 
ARWRVGLWRGASA | 0.665 | 0.672 |  | 
ARWRVGLWRGASV | 0.675 | 0.676 |  | 
ARWRVGLWRGAT | 0.447 | 0.683 |  | 
ARWRVGLWRGES | 0.681 | 0.695 |  | 
ARWRVGLWRGGS | 0.672 | 0.684 |  | 
ARWRVGLWRGVS | 0.122 | 0.689 |  | 
ARWRVGLWRRAS | 0.093 | 0.673 |  | 
ARWRVGLWWGAS | 0.556 | 0.679 |  | 
ARWRVHLWRGAS | 0.294 | 0.695 |  | 
ARWRVILWRGAS | 0.496 | 0.627 |  | 
ARWRYGLWRGAS | 0.489 | 0.678 |  | 
AWWRVGLWRGAS | 0.504 | 0.68 |  | 

Sequence | protein stability index [1] | protein stability index [2] | protein stability index [3, 4] | protein stability index ([3]; genetic background: wild type)
AYWRVGLWRGAS | 0.449 | 0.699 |  | 
CFSCGYKFRTNN | 0.188 | 0.682 |  | 
CKILRQKMNHQN | 0.165 | 0.675 |  | 
CTFCGYKFRTNN | 0.253 | 0.719 |  | 
CTSCGYCFRTNN | 0.261 | 0.7 |  | 
CTSCGYFFRTNN | 0.222 | 0.695 |  | 
CTSCGYIFRTNN | 0.233 | 0.706 |  | 
CTSCGYKARTNN | 0.623 | 0.686 |  | 
CTSCGYKFRTAN | 0.27 | 0.673 |  | 
CTSCGYKFRTNC | 0.224 | 0.699 |  | 
CTSCGYKFRTNP | 0.689 | 0.701 |  | 
CTSCGYKFWTNN | 0.299 | 0.75 |  | 
CTSCGYPFRTNN | 0.677 | 0.723 |  | 
CTSCVYKFRTNN | 0.164 | 0.675 |  | 
CTSCWYKFRTNN | 0.168 | 0.672 |  | 
ESLAASFWRVVG | 0.136 | 0.689 |  | 
FKHKKGQKQKIN | 0.123 | 0.586 |  | 
FSMAWTFRYWVN | 0.0458 | 0.456 |  | 
FSMFWTFRYWVN | 0.0733 | 0.403 |  | 
FSMRCTFRYWVN | 0.0458 | 0.522 |  | 
FSMRFTFRYWVN | 0.0475 | 0.501 |  | 
FSMRITFRYWVN | 0.0393 | 0.336 |  | 
FSMRRTFRYWVN | 0.102 | 0.616 |  | 
FSMRWTFAYWVN | 0.047 | 0.39 |  | 
FSMRWTFRAWVN | 0.104 | 0.425 |  | 
FSMRWTFRDWVN | 0.595 | 0.724 |  | 
FSMRWTFRQWVN | 0.109 | 0.427 |  | 

Sequence | protein stability index [1] | protein stability index [2] | protein stability index [3, 4] | protein stability index ([3]; genetic background: wild type)
FSMRWTFRYFVN | 0.0378 | 0.631 |  | 
FSMRWTFRYGVN | 0.338 | 0.527 |  | 
FSMRWTFRYKVN | 0.0899 | 0.691 |  | 
FSMRWTFTYWVN | 0.0917 | 0.389 |  | 
FSMRWTMRYWVN | 0.0449 | 0.482 |  | 
FSMRWTSRYWVN | 0.105 | 0.598 |  | 
FSMRWTTRYWVN | 0.0528 | 0.566 |  | 
YFLAERERINNH [PEX4 C-terminal 12 aa] |  |  | 0.721 ± 0.0079 | 0.694 ± 0.01
YGCIALTVVFIL [YAR069C C-terminal 12 aa] |  |  | 0.232 ± 0.0061 | 0.223 ± 0.0052
YISKAGSYEVRY [APM4 C-terminal 12 aa] |  |  | 0.68349 ± 0.00019 | 0.666 ± 0.03
YKASGSYLEKYF [YPK3 C-terminal 12 aa] |  |  | 0.7123 ± 0.0023 | 0.6863 ± 0.00092
YKKVQWAKVLEQ [SFG1 C-terminal 12 aa] |  |  | 0.709 ± 0.022 | 0.7255 ± 0.0061
YKLFKFLTRERS [BNA4 C-terminal 12 aa] |  |  | 0.7081 ± 0.0051 | 0.657 ± 0.018
YKNKVGVGIPFI [STE14 C-terminal 12 aa] |  |  | 0.728 ± 0.019 | 0.7065 ± 0.0057
YKQVSSHNSHSQ [CUP2 C-terminal 12 aa] |  |  | 0.68 ± 0.034 | 0.691 ± 0.014
YLEAFQWLSQYI [SAR1 C-terminal 12 aa] |  |  | 0.7969 ± 0.0076 | 0.7631 ± 0.0025
YLLGIYRDNKKC [ALG5 C-terminal 12 aa] |  |  | 0.727 ± 0.0028 | 0.6693 ± 0.0016
YNINHRKSVNSV [TDA9 C-terminal 12 aa] |  |  | 0.706 ± 0.0094 | 0.6634 ± 0.0026
YNSELVATKDIQ [PNT1 C-terminal 12 aa] |  |  | 0.703 ± 0.012 | 0.7242 ± 0.0066
YSELCIIVGTYY [YDR003W-A C-terminal 12 aa] |  |  | 0.431 ± 0.012 | 0.439 ± 0.036
YSLYRSRSKEAF [SAP190 C-terminal 12 aa] |  |  | 0.714 ± 0.048 | 0.692 ± 0.0071
YVRFYRGKLNNP [YOL036W C-terminal 12 aa] |  |  | 0.704 ± 0.022 | 0.7 ± 0.024
YWALGVALTGSK [YDR417C C-terminal 12 aa] |  |  | 0.6933 ± 0.0046 | 0.693 ± 0.029
YWRKQYPDADLP [YAR028W C-terminal 12 aa] |  |  | 0.714 ± 0.015 | 0.695 ± 0.033
YYNLKNCITSET [YHR050W-A C-terminal 12 aa] |  |  | 0.661 ± 0.007 | 0.6465 ± 0.0017
